Measurements: patent US20070265189A1 (published 2007)

What was measured:
[1] = biological target: T1, Soluble IGF-1R (sIGF-1R), R&D Systems Cat. # 391-GR/CF (UniProt P08069 31-935, limits assumed); experiment: phage ELISA
T1 construct: extracellular domain

[2] = biological target: T2, soluble human insulin receptor-immunoglobulin heavy chain chimera (sIR-Fc; Bass et al., 1996) (human, UniProt P06213 28-956, limits assumed); experiment: phage ELISA
T2 construct: extracellular domain; also called soluble IR (Bass construct); not shown: immunoglobulin heavy chain constant domains

[3] = biological target: T3, Soluble IGF-1R (R&D Systems, Cat. # 391-GR/CF) (UniProt P08069 31-935, limits assumed); experiment: phage ELISA: IGF-1R ratio over background divided by IR ratio over background
T3 construct: extracellular domain; also called sIGF-1R; IGFR

[4] = biological target: T4, Insulin receptor prepared according to Bass et al., 1996 (human, UniProt P06213 28-956, limits assumed); experiment: phage ELISA: IR ratio over background divided by IGF-1R ratio over background
T4 construct: extracellular domain; also called IR; soluble IR (Bass construct); not shown: immunoglobulin constant domains (Fc or lambda) of the Bass construct

[5] = biological target: T3, Soluble IGF-1R (R&D Systems, Cat. # …)
[6] = biological target: T4, Insulin receptor prepared according to …
[7] = biological target: human insulin receptor (HIR) (human, UniProt P06213 28-1382, limits assumed); experiment: competition with 125I-insulin, solubilised HIR

Row | Binder | IGF-1R/IR comparison [1] | Ratio over Background [1] | IR/IGF-1R comparison [2] | Ratio over Background [2] | Comparison IGF-1R/IR [3] [ratio] | Comparison IR/IGF-1R [4] [ratio] | Ratio over Background, IGF-1R [5] [ratio over background] | Ratio over Background, IR [6] [ratio over background] | Kd [7] [nM]
1 | SRAKVEAEMPDSGDPFYHKLSELLASG [B6Hα-1-A3-IR] | 3.3 | 2.6 | 0.3 | 0.8 |  |  |  |  | 
2 | APDPSDFQEIFYDWFVRQVSRMPGGG [H2CA-1-A3-IGFR] | 5.1 | 3.8 | 0.2 | 0.8 |  |  |  |  | 
3 | SSCDGAGHESFYEWFVRQVSGCRSV [H2CA-3-C8-IGFR] | 4.8 | 5.6 | 0.2 | 1.2 |  |  |  |  | 
4 | DYKDSRVAATKEKRPSDDPFYHKLSELLQGSAAAGAP (not shown: rest of the phage display fusion (remainder of E-Tag, phage coat protein)) [B6Hα-3-F7-IR] |  |  |  |  | 3.1 | 0.3 | 3.1 | 1 | 
5 | DYKDSSETAKMVTGTRDDPFYHKLSELVQGSAAAGAP (not shown: rest of the phage display fusion (remainder of E-Tag, phage coat protein)) [B6Hα-2-D8-IR] |  |  |  |  | 3 | 0.3 | 3 | 1 | 
6 | DYKDGCITAENGAGDPFYHKLSELGGCSAAAGAP (not shown: rest of the phage display fusion (remainder of E-Tag, phage coat protein)) [B6Hα-1-B3-IR] |  |  |  |  | 2.9 | 0.3 | 3.2 | 1.1 | 
7 | DYKDRCGDEEGWQENRRDDPFYHKLSELFGGCAAAGAP (not shown: rest of the phage display fusion (remainder of E-Tag, phage coat protein)) [B6Hα-3-E5-IR] |  |  |  |  | 2.9 | 0.3 | 2.9 | 1 | 
8 | DYKDMNVFVSFYDAIDQLVCQRIGCAAAGAP (not shown: rest of the phage display fusion (remainder of E-Tag, phage coat protein)) [20E2A-4-G11-IGFR] |  |  |  |  | 2.6 | 0.4 | 3.3 | 1.3 | 
9 | DYKDQSGSGDFYDWLSRLIRGNGDGAAAGAP (not shown: rest of the phage display fusion (remainder of E-Tag, phage coat protein)) [20E2Bβ-3-C7-IR] |  |  |  |  | 2 | 0.5 | 3.1 | 1.5 | 
10 | DYKDCGAKMTGTPNDPFYHKLSELLQRGAAAGAP (not shown: rest of the phage display fusion (remainder of E-Tag, phage coat protein)) [B6Hα-3-E6-IR] |  |  |  |  | 1.9 | 0.5 | 2.3 | 1.2 | 
11 | DYKDGHYFGSFYDAIDQLVAGMLPGAAAGAP (not shown: rest of the phage display fusion (remainder of E-Tag, phage coat protein)) [20E2A-3-A3-IGFR] |  |  |  |  | 1.9 | 0.5 | 3 | 1.5 | 
12 | RAGSSDFHEDFYEWFVRQVSLSLKGK [H2CA-2-B9-IGFR] | 4.2 | 7 | 0.2 | 1.7 |  |  |  |  | 
13 | DYKDCSMAAVAEAGDDDDPFYHKLSELCQGSAAAGAP (not shown: rest of the phage display fusion (remainder of E-Tag, phage coat protein)) [B6Hα-3-F1-IR] |  |  |  |  | 1.8 | 0.5 | 2.4 | 1.3 | 
14 | GIISQSCPESFYDWFAGQVSDPWWCW [H2CA-4-G9-IGFR] | 16 | 9.5 | 0.1 | 0.6 |  |  |  |  | 
15 | DYKDAETSAQVGWQRLWSVWPGDHWSTLDPFYHKLSELLRESGAAAAGAP (not shown: rest of the phage display fusion (remainder of E-Tag, phage coat protein)) [B6L-3-G5-IR] |  |  |  |  | 1.4 | 0.7 | 2 | 1.4 | 
16 | DYKDAGSVTSFYDAMEQLVATGTSAAAAGAP (not shown: rest of the phage display fusion (remainder of E-Tag, phage coat protein)) [20E2A-3-A4-IGFR] |  |  |  |  | 1.4 | 0.7 | 2.5 | 1.8 | 
17 | DYKDVRGFQGGTVWPGYEWLRNAAAAAGAP (not shown: rest of the phage display fusion (remainder of E-Tag, phage coat protein)) [R20β-4-E8-IR] |  |  |  |  | 9.7 | 0.1 | 34.9 | 3.6 | 
18 | DYKDLSCLAYSRHGIWRPSTDLGLGRSVGEGSVSTRWRGYDWFEAAAGAP (not shown: rest of the phage display fusion (remainder of E-Tag, phage coat protein)) [40F-4-D1-IGFR] |  |  |  |  | 13.1 | 0.1 | 4.6 | 0.3 | 
19 | DYKDGLDHSDAVGVHLGFAWPAQARGRWEAGGLEDTWAGYDWLAAAGAP (not shown: rest of the phage display fusion (remainder of E-Tag, phage coat protein)) [40F-4-B1-IGFR] |  |  |  |  | 13.1 | 0.1 | 3 | 0.2 | 

Row | Binder | IGF-1R/IR comparison [1] | Ratio over Background [1] | IR/IGF-1R comparison [2] | Ratio over Background [2] | Comparison IGF-1R/IR [3] [ratio] | Comparison IR/IGF-1R [4] [ratio] | Ratio over Background, IGF-1R [5] [ratio over background] | Ratio over Background, IR [6] [ratio over background] | Kd [7] [nM]
20 | QAVQPGFHEEFYDWFVRQVSTGVGGG [H2CA-4-H4-IGFR] | 4.2 | 4.1 | 0.2 | 1 |  |  |  |  | 
21 | GFREGNFYEWFQAQVT [E4Dα-4-H2-IR] | 4.1 | 33.9 | 0.2 | 8.2 |  |  |  |  | 
22 | SSIGGGFHENFYDWFSRQLSQSPPLK [H2CA-4-F7-IGFR] | 4.1 | 3.2 | 0.2 | 0.8 |  |  |  |  | 
23 | QSPVGSSHEDFYDWFFRQVAQSGAHQ [H2CA-3-D6-IGFR] | 4 | 9 | 0.3 | 2.2 |  |  |  |  | 
24 | NYRRQVFNGNFYDWFDRQVFSLVTPG [H2CA-3-D8-IGFR] | 4 | 7.2 | 0.3 | 1.8 |  |  |  |  | 
25 | TLDGGSFEEQFYDWFVRQLSYRTNPD [H2CA-4-G11-IGFR] | 3.9 | 9.5 | 0.3 | 2.5 |  |  |  |  | 
26 | HHHHHHKLDQEWAWVQCEVYGRGCPSESFYDWFERQLG [S481] |  |  |  |  |  |  |  |  | 1.3
27 | FYVQQWGHENFYDWFDRQVSQSGGAG [H2CA-4-F1-IGFR] | 3.8 | 3.5 | 0.3 | 0.9 |  |  |  |  | 
28 | LDQEWAWVQSEVYGRGSPSESFYDWFERQL [S509] |  |  |  |  |  |  |  |  | 5.7
29 | SIEEEWAQIKCDVWGRGCPSESFYDWFERQL [S517] |  |  |  |  |  |  |  |  | 0.006
30 | SLEEEWAQVECEVYGRGCPSGSLDESFYHWFERQLG [S542] |  |  |  |  |  |  |  |  | 0.027
31 | GSLDESFYDWFERQLGXK (as printed: Ac-GSLDESFYDWFERQLG-POX-K; N-terminal acetyl; POX between G and the C-terminal K, POX is not explained) [S550] |  |  |  |  |  |  |  |  | 40
32 | SLEEEWAQVECEVYGRGCPSESFYDWFVRQLG [S555] |  |  |  |  |  |  |  |  | 0.057
33 | SLEEEWAQIECEVWGRGCPSGSLDESFYDWFERQL [S560] |  |  |  |  |  |  |  |  | 0.014
34 | LRRQAPVEENFYDWFVRQVSGDRVGG [H2CA-3-D7-IGFR] | 3.7 | 3 | 0.3 | 0.8 |  |  |  |  | 
35 | RCGRELYHSTFYDWFDRQVAGRTCPS [H2CA-1-A7-IGFR] | 3.7 | 2.2 | 0.3 | 0.6 |  |  |  |  | 
36 | CCLLCRFQQNFYDWFVCQGISRLRPL [H2CA-2-B4-IGFR] | 3.6 | 4.1 | 0.3 | 1.1 |  |  |  |  | 
37 | PPLASDLDVQFYGWFVQQVSPPGRGG [H2CA-2-B3-IGFR] | 3.6 | 3.8 | 0.3 | 1 |  |  |  |  | 
